Test results: paper PMC12410710

Target: CsrA (Salmonella Typhimurium) (UniProt P69916)
Assay: SEC; S75 Superdex column after Ni2+-NTA; SEC buffer 25 mM Tris, 150 mM NaCl, 10% glycerol, 1 mM DTT, pH 7.5; oligomeric state judged from the elution profile

Sequence of CsrA, P69916 1-61 (natural protein; other documents disagree on this pair) (P69916 whole entry): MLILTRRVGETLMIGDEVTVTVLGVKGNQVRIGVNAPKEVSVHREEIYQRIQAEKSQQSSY

## CsrA, P69916 1-61 (natural protein; other documents disagree on this pair)
  stoichiometry N: 2
